{"source": "patent CN111690061A", "about": "(EASTERN THEATER COMMAND DISEASE CONTROL AND PREVENTION …, dated 2020)", "binders": {"B1": {"name": "人鼠嵌合单克隆抗体 hm YF202 (antibody, V domains shown)", "VH": "ESGPDLVKPSQSLSLTCTVTGYSITSGYSWHWIRQFPGNKLEWMGYIHYSGSTNYNPSLKSRISITRDTSKNQFFLQLNSVTTEDTATYYCARNYAMDYWGQGTLVTVS", "VL": "DIVMTQSPKFMSTSVGDRVSVTCKASQNVGTNVAWYQQKPGQSPKALIYSASYRYSGVPDRFTGSGSGTDFTLTISNVQSEDLAEYFCQQYNSYPYTFGGGTKLEIKR", "notes": "also called 抗F1的人鼠嵌合单克隆抗体"}}, "target": "T1, 鼠疫耶尔森菌抗原F1 (重组F1蛋白) (Yersinia pestis, UniProt P26948 22-170)", "T1 construct": "also called F1抗原; 鼠疫抗原F1", "T1 sequence (P26948 22-170 limits assumed)": "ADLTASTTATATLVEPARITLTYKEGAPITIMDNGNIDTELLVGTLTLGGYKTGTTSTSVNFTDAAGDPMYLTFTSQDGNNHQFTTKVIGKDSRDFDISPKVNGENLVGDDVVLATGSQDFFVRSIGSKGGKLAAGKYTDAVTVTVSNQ", "test": "immunological detection (免疫学检测)"}
{"binder": "B1", "values": [{"measurement": "binding result", "value": "binds"}]}
